Measured values taken from publication PMC1635258.
Read-outs that look alike come from different tables or passages of the source.

Legend:
[1] = target: T1, hRPA (replication protein A heterotrimer p70/p32/p14) (human, UniProt P27694;P15927;P35244 1-616;1-270;1-121); assay: EMSA
[2] = target: T1, hRPA (replication protein A …); assay: EMSA; remark: listed apart in the source

T1 sequence (P27694 whole entry, chain 1 of 3): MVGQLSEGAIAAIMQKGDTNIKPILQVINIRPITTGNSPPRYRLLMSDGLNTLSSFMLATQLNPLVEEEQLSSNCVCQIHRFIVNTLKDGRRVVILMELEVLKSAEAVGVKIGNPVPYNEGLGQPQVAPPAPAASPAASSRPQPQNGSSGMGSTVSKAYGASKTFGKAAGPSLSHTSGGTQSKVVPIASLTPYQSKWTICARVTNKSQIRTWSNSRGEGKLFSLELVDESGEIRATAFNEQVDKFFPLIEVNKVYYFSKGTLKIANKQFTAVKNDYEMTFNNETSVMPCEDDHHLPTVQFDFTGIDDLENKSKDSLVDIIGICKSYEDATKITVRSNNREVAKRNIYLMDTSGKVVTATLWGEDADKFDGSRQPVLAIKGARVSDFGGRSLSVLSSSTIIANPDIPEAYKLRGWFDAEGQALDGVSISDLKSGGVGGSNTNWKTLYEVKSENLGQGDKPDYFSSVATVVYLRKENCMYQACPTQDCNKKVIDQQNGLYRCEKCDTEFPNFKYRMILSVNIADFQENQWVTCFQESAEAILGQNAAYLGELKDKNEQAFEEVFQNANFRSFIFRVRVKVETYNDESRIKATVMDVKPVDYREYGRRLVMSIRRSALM
T1 sequence (P15927 whole entry, chain 2 of 3): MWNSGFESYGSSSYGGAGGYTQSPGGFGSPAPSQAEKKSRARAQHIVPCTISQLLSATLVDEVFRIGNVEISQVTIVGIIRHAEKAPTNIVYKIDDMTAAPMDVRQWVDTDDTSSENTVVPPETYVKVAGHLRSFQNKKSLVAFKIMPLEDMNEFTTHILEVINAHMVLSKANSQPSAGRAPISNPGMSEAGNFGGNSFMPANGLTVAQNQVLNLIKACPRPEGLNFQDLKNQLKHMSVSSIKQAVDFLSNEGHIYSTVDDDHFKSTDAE
T1 sequence (P35244 whole entry, chain 3 of 3): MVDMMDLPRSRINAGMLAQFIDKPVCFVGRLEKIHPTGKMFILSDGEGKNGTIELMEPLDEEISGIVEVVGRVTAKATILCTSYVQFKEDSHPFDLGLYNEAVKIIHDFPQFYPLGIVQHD

| Binder | binding result [1] | binding result [2] |
| --- | --- | --- |
| GGGTTAGGGTTAGGGTTAGGG (structured_DNA) [htelo] | binds | – |
| TTTTTTTTTTTTTTTTTTTTT (ssDNA) [T21] | – | binds |
